# In US20140343095A1, “Methods of Diagnosing and Treating Multiple Sclerosis” (The Brigham and Women's Hospital, Inc., priority 2009, published 2014):
# Test system: PARP-1
# Assay: FACS PARP-1 activity in innate and adaptive immune cells treated with HSP60 or 15-HC
# Format: cell-based, human
# Conditions: CD4+ T cells, CD8+ T cells, B cells of healthy controls; HSP60 1, 5, 10 ng/ml; 15-HC 1, 5, 10 ug/ml
# Excerpt: FIGS. 17A-C are bar graphs showing that 15-HC, but not HSP60, activates PARP-1 in cells of the innate immune system. Mean PARP-1 activity as determined by FACS in classical monocytes (17A), inflammatory monocytes (17B) and dendritic cells (17C) of healthy controls (HC) treated with activated with HSP60, 15-HC or left untreated. The data are shown as mean fluorescence intensity (MFI)±SD of 5 samples/group.
# FIGS. 18A-C are bar graphs showing that both 15-HC and HSP60 activate PARP-1 in cells of the adaptive immune system. Mean PARP-1 activity as determined by FACS in CD4+ T cells (18A), CD8+ T cells (18B) and B cells (18C) of healthy controls (HC) treated with activated with HSP60, 15-HC or left untreated. The data are shown as mean fluorescence intensity (MFI)±SD of 5 samples/group.
# A new FACS-based method was developed to detect PARP-1 activation based on the intracellular detection of the PARP-1 product PAR with specific antibodies. Briefly, the cells were incubated with antibodies to CD16/32 to block unspecific antibody binding, and then stained for surface markers. […] The samples were then analyzed by FACS.
# To investigate whether the increased activity of the TLR2/PARP-1 axis in SPMS patients resulted from increased levels of TLR2 ligands, the levels of 15-HC and HSP60 were measured in serum samples from healthy controls, RRMS and SPMS patients. […]
molecule,measurement,value
"HSP60: TLR2 agonist HSP60 (protein, UniProt P10809 27-573, looked up) 60 kDa heat shock protein, …: AKDVKFGADARALMLQGVDLLADAVAVTMGPKGRTVIIEQSWGSPKVTKDGVTVAKSIDLKDKYKNIGAKLVQDVANNTNEEAGDGTTTATVLARSIAKEGFEKISKGANPVEIRRGVMLAVDAVIAELKKQSKPVTTPEEIAQVATISANGDKEIGNIISDAMKKVGRKGVITVKDGKTLNDELEIIEGMKFDRGYISPYFINTSKGQKCEFQDAYVLLSEKKISSIQSIVPALEIANAHRKPLVIIAEDVDGEALSTLVLNRLKVGLQVVAVKAPGFGDNRKNQLKDMAIATGGAVFGEEGLTLNLEDVQPHDLGKVGEVIVTKDDAMLLKGKGDKAQIEKRIQEIIEQLDVTTSEYEKEKLNERLAKLSDGVAVLKVGGTSDVEVNEKKDRVTDALNATRAAVEEGIVLGGGCALLRCIPALDSLTPANEDQKIGIEIIKRTLKIPAMTIAKNAGVEGSLIVEKIMQSSSEVGYDAMAGDFVNMVEKGIIDPTKVVRTALLDAAGVASLLTTAEVVVTEIPKEEKDPGMGAMGGMGGGMGGGMF",PARP-1 activation in cells of the adaptive immune system (FIG. 18),could activate
